Legend:
Conditions in all cases: pH and temperature of Km assay not stated
[1] = system: O=[N+]([O-])c1ccc(O[C@H]2O[C@H](CO)[C@H](O)[C@H](O)[C@H]2O)cc1; experiment: purified protein
[2] = system: T1, OC[C@H]1O[C@H](OC[C@H]2O[C@H](OC[C@H]3O[C@H](O[C@]4(CO)O[C@H](CO)[C@@H](O)[C@@H]4O)[C@H](O)[C@@H](O)[C@@H]3O)[C@H](O)[C@@H](O)[C@H]2O)[C@H](O)[C@@H](O)[C@H]1O; experiment: Lineweaver-Burk plot, hydrolysis; type: biochemical, Cucumis sativus
T1 construct: coding region in pAcHLT, baculovirus/Sf9 insect cells; 6xHis tag removed by thrombin

[3] = system: T2, OC[C@H]1O[C@H](OC[C@H]2O[C@H](O[C@]3(CO)O[C@H](CO)[C@@H](O)[C@@H]3O)[C@H](O)[C@@H](O)[C@@H]2O)[C@H](O)[C@@H](O)[C@H]1O; experiment: Lineweaver-Burk plot, hydrolysis; type: biochemical, Cucumis sativus
T2 construct: coding region in pAcHLT, baculovirus/Sf9 insect cells; 6xHis tag removed by thrombin

Sequence of CsGAL3 (Cucumis sativus) (chain, as listed by the source): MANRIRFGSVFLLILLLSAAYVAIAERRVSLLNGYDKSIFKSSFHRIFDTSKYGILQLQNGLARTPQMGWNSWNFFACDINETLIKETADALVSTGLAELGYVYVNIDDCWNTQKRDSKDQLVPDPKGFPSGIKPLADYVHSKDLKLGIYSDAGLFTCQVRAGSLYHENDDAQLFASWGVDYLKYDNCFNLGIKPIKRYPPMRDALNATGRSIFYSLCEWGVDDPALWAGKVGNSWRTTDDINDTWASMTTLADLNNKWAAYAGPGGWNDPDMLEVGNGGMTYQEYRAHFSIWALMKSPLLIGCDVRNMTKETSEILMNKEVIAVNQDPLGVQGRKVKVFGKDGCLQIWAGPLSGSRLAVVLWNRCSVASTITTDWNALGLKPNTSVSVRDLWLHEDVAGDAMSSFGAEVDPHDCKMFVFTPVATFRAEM
Sequence of CsGAL2 (Cucumis sativus) (chain, as listed by the source): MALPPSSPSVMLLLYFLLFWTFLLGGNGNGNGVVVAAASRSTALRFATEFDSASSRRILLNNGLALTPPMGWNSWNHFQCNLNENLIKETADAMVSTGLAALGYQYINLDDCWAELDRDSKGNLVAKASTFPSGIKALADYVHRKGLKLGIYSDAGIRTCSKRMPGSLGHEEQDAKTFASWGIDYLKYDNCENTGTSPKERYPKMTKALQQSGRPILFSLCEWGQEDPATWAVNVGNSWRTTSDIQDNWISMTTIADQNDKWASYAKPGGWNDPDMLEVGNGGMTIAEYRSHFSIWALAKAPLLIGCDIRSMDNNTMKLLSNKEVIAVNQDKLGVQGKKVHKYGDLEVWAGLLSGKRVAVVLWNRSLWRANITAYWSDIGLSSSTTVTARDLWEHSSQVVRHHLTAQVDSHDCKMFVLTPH
Sequence of CsGAL1 (Cucumis sativus) (chain, as listed by the source): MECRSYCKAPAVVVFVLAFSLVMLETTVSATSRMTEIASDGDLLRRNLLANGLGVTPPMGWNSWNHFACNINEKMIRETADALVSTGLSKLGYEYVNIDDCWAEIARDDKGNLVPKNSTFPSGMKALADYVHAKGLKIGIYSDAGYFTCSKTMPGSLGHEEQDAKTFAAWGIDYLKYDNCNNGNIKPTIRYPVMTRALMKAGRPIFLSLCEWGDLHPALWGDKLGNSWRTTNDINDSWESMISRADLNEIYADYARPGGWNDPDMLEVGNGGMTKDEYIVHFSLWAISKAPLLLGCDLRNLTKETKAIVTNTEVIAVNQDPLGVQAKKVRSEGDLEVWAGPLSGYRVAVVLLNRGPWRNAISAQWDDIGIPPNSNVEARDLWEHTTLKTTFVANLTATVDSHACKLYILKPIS

Substance	Km [1] [mM]	Km [2] [mM]	Km [3] [mM]
CsGAL1 (Cucumis sativus)	0.89 ± 0.12	12.3 ± 1.92	4.71 ± 0.85
CsGAL2 (Cucumis sativus)	1.35 ± 0.23	11.85 ± 2.05	5.63 ± 0.67
CsGAL3 (Cucumis sativus)	0.99 ± 0.10	18.92 ± 2.56	3.24 ± 0.70
